Measurements: EP2975059A1

Target: Human PCSK9 form a' (human)
Assay: SPR ProteOn XPR36, antibody captured on anti-human IgG, PCSK9 variant as analyte, 25 C, 1:1 model

Kd: 0.185 nM
koff: 2.29e-05 s⁻¹
kon: 124000 M⁻¹ s⁻¹
Substance: Evolocumab (antibody)
